Measured values taken from patent US20230381281A1, “PHARMACEUTICAL COMPOSITION COMPRISING GLUCAGON/GLP-1/GIP TRIPLE AGONIST OR LONG-ACTING CONJUGATE THEREOF FOR PREVENTING OR TREATING LUPUS-RELATED DISEASES” (HANMI PHARM. CO., LTD., priority 2020, published 2023).
Bridge positions count the residues as written; N and C are the ends. Square brackets hold non-standard residues; d marks the D form. Ends that are not written are not given here. Aib = CC(C)(N)C(=O)O

T1: human GIP receptor (Homo sapiens, UniProt P48546)
T1 construct: expressed in transfected cells; host or cells: Chinese hamster ovary (CHO)
T1 sequence (P48546 22-466): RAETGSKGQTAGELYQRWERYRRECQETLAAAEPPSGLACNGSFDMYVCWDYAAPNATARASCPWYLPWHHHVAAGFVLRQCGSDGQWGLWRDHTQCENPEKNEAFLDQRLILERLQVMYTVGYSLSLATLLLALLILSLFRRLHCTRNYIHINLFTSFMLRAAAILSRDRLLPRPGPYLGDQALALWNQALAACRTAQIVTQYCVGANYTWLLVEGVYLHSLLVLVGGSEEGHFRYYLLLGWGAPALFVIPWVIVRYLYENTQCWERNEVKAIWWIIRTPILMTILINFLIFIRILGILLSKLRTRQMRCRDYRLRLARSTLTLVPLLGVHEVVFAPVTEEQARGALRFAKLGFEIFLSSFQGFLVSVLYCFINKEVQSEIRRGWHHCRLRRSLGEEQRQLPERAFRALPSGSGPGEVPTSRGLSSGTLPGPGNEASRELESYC

T2: human GIP receptor (human, UniProt P48546 22-466)
T2 sequence (looked up): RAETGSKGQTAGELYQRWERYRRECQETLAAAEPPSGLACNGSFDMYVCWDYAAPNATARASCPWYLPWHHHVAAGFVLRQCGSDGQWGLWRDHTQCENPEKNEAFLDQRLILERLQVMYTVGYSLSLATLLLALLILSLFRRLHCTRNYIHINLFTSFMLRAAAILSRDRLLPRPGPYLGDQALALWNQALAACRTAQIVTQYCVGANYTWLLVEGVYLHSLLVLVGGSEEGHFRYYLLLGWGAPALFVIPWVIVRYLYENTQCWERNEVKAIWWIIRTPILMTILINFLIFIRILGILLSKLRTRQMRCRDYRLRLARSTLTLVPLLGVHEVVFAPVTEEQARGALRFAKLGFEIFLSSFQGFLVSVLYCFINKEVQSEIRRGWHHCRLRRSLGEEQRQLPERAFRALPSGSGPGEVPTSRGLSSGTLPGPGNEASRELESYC


How the values were obtained:
human GLP-1 receptor [1] = biological target: T3, human GLP-1 receptor (Homo sapiens, UniProt P43220); assay: In vitro cAMP activity in human GLP-1 receptor-expressing CHO cells (LANCE cAMP kit); type: cell-based; conditions: long-acting conjugates; relative titer from cAMP EC50 compared to human GLP-1
T3 construct: expressed in transfected cells; host or cells: Chinese hamster ovary (CHO)
T3 sequence (P43220 24-463): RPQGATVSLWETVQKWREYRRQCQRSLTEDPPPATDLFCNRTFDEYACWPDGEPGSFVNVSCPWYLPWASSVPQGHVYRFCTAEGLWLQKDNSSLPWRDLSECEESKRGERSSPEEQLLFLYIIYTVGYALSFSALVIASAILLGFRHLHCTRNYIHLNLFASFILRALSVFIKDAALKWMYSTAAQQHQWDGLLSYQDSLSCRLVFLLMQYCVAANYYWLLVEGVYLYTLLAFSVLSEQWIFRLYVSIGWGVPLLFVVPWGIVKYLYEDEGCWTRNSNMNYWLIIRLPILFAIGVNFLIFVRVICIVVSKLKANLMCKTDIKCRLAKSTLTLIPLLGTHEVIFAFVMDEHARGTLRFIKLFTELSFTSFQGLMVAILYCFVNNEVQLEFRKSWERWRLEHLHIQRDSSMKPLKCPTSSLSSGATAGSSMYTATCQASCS
Protocol: (§1) In order to measure the activity of the triple agonists and long-acting conjugates thereof prepared according to Examples 1 and 2, the in-vitro cell activity was measured using cell lines transformed with GLP-1 receptor, glucagon (GCG) receptor, and GIP receptor, respectively.
(§2) The cell lines were transformed to express human GLP-1 receptor, human GCG receptor and human GIP receptor genes in Chinese hamster ovary (CHO), respectively, and are suitable for measuring the activities of GLP-1, GCG, and GIP. Therefore, the activity for each part was measured using each transformed cell line.
(§3) To measure the GLP-1 activity of the triple agonists and long-acting conjugates prepared according to Examples 1 and 2, human GLP-1 was diluted from 50 nM to […] by 4-fold serial dilution, and the triple agonists and long-acting conjugates thereof prepared according to Examples 1 and 2 were diluted from 400 nM to 0.00038 nM by 4-fold serial dilution. The culture medium was removed from the cultured human GLP-1 receptor-expressing CHO cells, 5 μl of each of the serially diluted materials was added to the cells, and then 5 μl of buffer containing cAMP antibody was added to the cells, followed by 15 minutes of incubation at room temperature. Then, cells were lysed by adding 10 μl of detection mix containing cell lysis buffer, and reacted at room temperature for 90 minutes. The cell lysate after the reaction had been completed, was applied to the LANCE cAMP kit (PerkinElmer, USA) to calculate the EC50 value through the accumulated cAMP, and then compared with each other.

human GIP receptor [2] = biological target: T1, human GIP receptor; assay: In vitro cAMP activity in human GIP receptor-expressing CHO cells (LANCE cAMP kit); type: cell-based; conditions: long-acting conjugates; relative titer from cAMP EC50 compared to human GIP
Protocol: as §1, §2
as §3, with “measure the GIP activity of” for “measure the GLP-1 activity of”, “long-acting conjugates thereof prepared according” for “long-acting conjugates prepared according”, “2, human GIP was diluted” for “2, human GLP-1 was diluted”, “cultured human GIP receptor-expressing CHO” for “cultured human GLP-1 receptor-expressing CHO”

human GCG receptor [3] = biological target: T4, human GCG receptor (Homo sapiens, UniProt P47871); assay: In vitro cAMP activity in human GCG receptor-expressing CHO cells (LANCE cAMP kit); type: cell-based; conditions: for In vitro activity compared to native peptide (%) vs Glucagon: long-acting conjugates, relative titer from cAMP EC50 compared to human GCG; for activity on the glucagon receptor: statement in words in the description
T4 construct: expressed in transfected cells; host or cells: Chinese hamster ovary (CHO)
T4 sequence (P47871 26-477): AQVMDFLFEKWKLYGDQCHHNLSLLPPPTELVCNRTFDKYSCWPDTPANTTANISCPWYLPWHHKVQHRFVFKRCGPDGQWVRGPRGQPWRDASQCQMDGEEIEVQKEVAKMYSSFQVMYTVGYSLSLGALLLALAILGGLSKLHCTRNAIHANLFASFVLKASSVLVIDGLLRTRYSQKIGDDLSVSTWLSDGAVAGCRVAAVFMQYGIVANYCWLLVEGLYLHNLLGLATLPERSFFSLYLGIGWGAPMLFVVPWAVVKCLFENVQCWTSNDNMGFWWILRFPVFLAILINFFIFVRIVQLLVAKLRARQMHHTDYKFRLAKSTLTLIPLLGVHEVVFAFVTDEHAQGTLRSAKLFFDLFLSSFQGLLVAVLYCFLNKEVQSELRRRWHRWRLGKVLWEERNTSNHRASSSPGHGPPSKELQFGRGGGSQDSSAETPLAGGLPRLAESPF
Protocol: as §1, §2
as §3, with “GCG” for “GLP-1”

human GCG receptor [4] = biological target: human GCG receptor (human, UniProt P47871 26-477); assay: cell-based or functional assay
Chain of human GCG receptor (human, UniProt P47871 26-477) (P47871 26-477): as above

human GLP-1 receptor [5] = biological target: human GLP-1 receptor (human, UniProt P43220 24-463); assay: cell-based or functional assay
human GIP receptor [6] = biological target: T2, human GIP receptor; assay: cell-based or functional assay

Molecule	In vitro activity compared to native peptide (%) vs GLP-1 (human GLP-1 receptor [1])	In vitro activity compared to native peptide (%) vs GIP (human GIP receptor [2])	In vitro activity compared to native peptide (%) vs Glucagon (human GCG receptor [3])	activity on the glucagon receptor (human GCG receptor [3])	In vitro activity compared to native peptide (%) vs Glucagon (human GCG receptor [4])	In vitro activity compared to native peptide (%) vs GLP-1 (human GLP-1 receptor [5])	In vitro activity compared to native peptide (%) vs GIP (human GIP receptor [6])
21 (Y[Aib]QGTFTSDYSKYLDECRAKEFVQWLLDHHPSSGQPPPS; bridge 16-20) [compound 21]	0.1%	0.2%	1.6%	very high activity	–	–	–
22 (Y[Aib]QGTFTSDYSKCLDEKRAKEFVQWLLDHHPSSGQPPPS; bridge 16-20) [compound 22]	0.1%	0.5%	0.9%	very high activity	–	–	–
42 (Y[Aib]QGTFTSDYSKYLDEKRAKEFVQWLLDHHPSSGQPPPSC; bridge 16-20) [compound 42]	3.1%	1.2%	23.1%	very high activity	–	–	–
43 (Y[Aib]QGTFTSDYSKYLDEKRAKEFVQWLLDHHCSSGQPPPS; bridge 16-20) [compound 43]	2.1%	0.6%	13.5%	very high activity	–	–	–
50 (H[Aib]QGTFTSDYSKYLDEKRAKEFVQWLLDHHPSSGQPPPSC; bridge 16-20) [compound 50]	15.4%	0.7%	6.9%	–	–	–	–
66 (Y[Aib]QGTFTSDYSKYLDECRAKDFVQWLLDHHPSSGQPPPS; bridge 16-20) [compound 66]	–	–	–	very high activity	–	–	–
70 (Y[Aib]QGTFTSDYSKCLDEKRAKDFVQWLLDHHPSSGQPPPS; bridge 16-20) [compound 70]	–	–	–	very high activity	–	–	–
77 (Y[Aib]QGTFTSDYSKYLDEKAAKDFVQWLLDHHPSSGQPPPSC; bridge 16-20) [compound 77]	6.7%	6.6%	1.7%	–	–	–	–
96 (Y[Aib]QGTFTSDYSKYLDEKRAKEFVQWLLDHCPSSGQPPPS; bridge 16-20) [compound 96]	0.3%	0.3%	4.0%	very high activity	–	–	–
97 (Y[Aib]QGTFTSDYSKYLDEKRAKEFVQWLLDCHPSSGQPPPS; bridge 16-20) [compound 97]	–	–	–	very high activity	–	–	–
H[Aib]QGTFTSDYSKYLDEKACKEFVQWLLAQ (bridge 16-20) [Triple agonist of SEQ ID NO: 31]	–	–	–	–	2.2%	135%	2.4%
H[Aib]QGTFTSDYSKYLDEKAAKEFVQWLLNTC (bridge 16-20) [Triple agonist of SEQ ID NO: 29]	–	–	–	–	6%	38.5%	< 0.1%
H[Aib]QGTFTSDVSSYLLGQAAKQFIAWLVKGGGPSSGAPPPSC [Triple agonist of SEQ ID NO: 3]	–	–	–	–	< 0.1%	1.8%	< 0.1%
H[Aib]QGTFTSDCSKYLDSRAAQDFVQWLLDGGPSSGAPPPS [Triple agonist of SEQ ID NO: 26]	–	–	–	–	0.2%	64.5%	< 0.1%
Y[Aib]QGTFTSDYSKYLDECRAKEFVQWLKNGGPSSGAPPPS (bridge 16-20) [Triple agonist of SEQ ID NO: 24]	–	–	–	–	9.3%	41.2%	< 0.1%
H[Aib]QGTFTSDYSKYLDERACQDFVQWLLDQGGPSSGAPPPS [Triple agonist of SEQ ID NO: 27]	–	–	–	–	0.8%	83.1%	0.9%
H[Aib]QGTFTSDYSKYLDEKAQKEFVQWLLDTC (bridge 16-20) [Triple agonist of SEQ ID NO: 30]	–	–	–	–	0.7%	142%	0.8%
H[Aib]QGTFTSDYSKYLDEKRAQEFVCWLLAQKGKKNDWKHNIT [Triple agonist of SEQ ID NO: 28]	–	–	–	–	1.6%	17.2%	< 0.1%
H[Aib]QGTFTSDYSIAMDEIHQKDFVNWLLAQKC (bridge 16-20) [Triple agonist of SEQ ID NO: 33]	–	–	–	–	< 0.1%	24.5%	10.4%
H[Aib]QGTFTSDYSKYLDEKACKDFVQWLLDGGPSSGAPPPS (bridge 16-20) [Triple agonist of SEQ ID NO: 32]	–	–	–	–	1.7%	151%	8.8%
H[Aib]QGTFTSDCSKYLDERAAQDFVQWLLDGGPSSGAPPPS [Triple agonist of SEQ ID NO: 25]	–	–	–	–	0.1%	82.6%	< 0.1%
